B1: ALFA-tagged IRT1 (iron-regulated transporter 1), wildtype [Arabidopsis thaliana] / CIPK23 fused to the mCitC fragment [not stated] (parent)
chain 1: MASRTTPSRSTPSRSTPSGSSSGGRTRVGKYELGRTLGEGTFAKVKFARNVENGDNVAIKVIDKEKVLKNKMIAQIKREISTMKLIKHPNVIRMFEVMASKTKIYFVLEFVTGGELFDKISSNGRLKEDEARKYFQQLINAVDYCHSRGVYHRDLKPENLLLDANGALKVSDFGLSALPQQVREDGLLHTTCGTPNYVAPEVINNKGYDGAKADLWSCGVILFVLMAGYLPFEDSNLTSLYKKIFKAEFTCPPWFSASAKKLIKRILDPNPATRITFAEVIENEWFKKGYKAPKFENADVSLDDVDAIFDDSGESKNLVVERREEGLKTPVTMNAFELISTSQGLNLGSLFEKQMGLVKRKTRFTSKSSANEIVTKIEAAAAPMGFDVKTNNYKMKLTGEKSGRKGQLAVATEVFQVAPSLYMVEMRKSGGDTLEFHKFYKNLTTGLKDIVWKTIDEEKEEGTDGGGTNGAMANRTIAKQST
chain 2: ISPATSTAPEECGSESANPCVNKAKALPLKVIAIFVILIASMIGVGAPLFSRNVSFLQPDGNIFTIIKCFASGIILGTGFMHVLPDSFEMLSSICLEENPWHKFPFSGFLAMLSGLITLAIDSMATSLYTSKNAVGIMPHGHGHGHGPANDVTLPIKEDDSSNAQLLRYRVIAMVLELGIIVHSVVIGLSLGATSDTCTIKGLIAALCFHQMFEGMGLGGCILQAEYTNMKKFVMAFFFAVTTPFGIALGIALSTVYQDNSPKALITVGLLNACSAGLLIYMALVDLLAAEFMGPKLQGSIKMQFKCLIAALLGCGGMSIIAKWA

Variants of: B1
Assay: trimolecular fluorescence complementation (TriFC)
Conditions: with CIPK23 fused to the mCitC fragment; parent: 74; read off a plot

Row | response | Variant
1 | 23 | chain 2 ISPATSTAPEECGSESANPCVNKAKALPLKVIAIFVILIASMIGVGAPLFSRNVSFLQPDGNIFTIIKCFASGIILGTGFMHVLPDSFEMLSSICLEENPWHKFPFSGFLAMLSGLITLAIDSMATSLYTSKNAVGIMPAGAGHGHGPANQVTLPIKEDDSSNAQLLRYRVIAMVLELGIIVHSVVIGLSLGATSDTCTIKGLIAALCFHQMFEGMGLGGCILQAEYTNMKKFVMAFFFAVTTPFGIALGIALSTVYQDNSPKALITVGLLNACSAGLLIYMALVDLLAAEFMGPKLQGSIKMQFKCLIAALLGCGGMSIIAKWA [chain 2 H140A H142A D151Q]
2 | 46 | chain 2 ISPATSTAPEECGSESANPCVNKAKALPLKVIAIFVILIASMIGVGAPLFSRNVSFLQPDGNIFTIIKCFASGIILGTGFMHVLPDSFEMLSSICLEENPWHKFPFSGFLAMLSGLITLAIDSMATSLYTSKNAVGIMPAGAGHGHGPANDVTLPIKEDDSSNAQLLRYRVIAMVLELGIIVHSVVIGLSLGATSDTCTIKGLIAALCFHQMFEGMGLGGCILQAEYTNMKKFVMAFFFAVTTPFGIALGIALSTVYQDNSPKALITVGLLNACSAGLLIYMALVDLLAAEFMGPKLQGSIKMQFKCLIAALLGCGGMSIIAKWA [chain 2 H140A H142A]
3 | 67 | chain 2 ISPATSTAPEECGSESANPCVNKAKALPLKVIAIFVILIASMIGVGAPLFSRNVSFLQPDGNIFTIIKCFASGIILGTGFMHVLPDSFEMLSSICLEENPWHKFPFSGFLAMLSGLITLAIDSMATSLYTSKNAVGIMPHGHGHGHGPANQVTLPIKEDDSSNAQLLRYRVIAMVLELGIIVHSVVIGLSLGATSDTCTIKGLIAALCFHQMFEGMGLGGCILQAEYTNMKKFVMAFFFAVTTPFGIALGIALSTVYQDNSPKALITVGLLNACSAGLLIYMALVDLLAAEFMGPKLQGSIKMQFKCLIAALLGCGGMSIIAKWA [chain 2 D151Q]

Source: paper PMC12203963
